Source: US6953675
One block for each substance: values may come before it.

Tests used:
WN = experiment: competitive binding ELISA with WN as the surrogate Ag, from ID50 values
[1] = biological target: antigen of LL2 (not named; LL2 is called an anti-B-cell monoclonal antibody); experiment: cell binding assay, calculated from the ID50 values; cells not named
[2] = biological target: antigen of LL2 (not named; LL2 is called an anti-B-cell monoclonal antibody); experiment: competitive binding assay; format and target not stated
[3] = biological target: antigen of hMN14 (not named); experiment: as above

Substance: LL2 F(ab')2, DOX-dextran conjugated (5.1 DOX/F(ab')2) (antibody)
Immunoreactivity (%), ELISA (WN): 42.2% | Immunoreactivity (%), Cell binding [1]: 41.9%

Substance: mLL2 F(ab')2, LC-DTPA conjugated at the Vk-CHO (4.6 chelators/F(ab')2) (antibody)
Immunoreactivity (from ID50 against unmodified control F(ab')2) [2]: 100%

Substance: mLL2 F(ab')2, DTPA conjugated at random lysines (2.2 chelators/F(ab')2) (antibody)
Immunoreactivity (from ID50 against unmodified control F(ab')2) [2]: 75%

Substance: mLL2 F(ab')2, DTPA conjugated at the Vk-CHO (5.5 chelators/F(ab')2) (antibody)
Immunoreactivity (from ID50 against unmodified control F(ab')2) [2]: 100%

Substance: LL2 F(ab')2, non-conjugated (murine mAb, naturally glycosylated in the V domain) (antibody)
Immunoreactivity (%), ELISA (WN): 100% | Immunoreactivity (%), Cell binding [1]: 100%

Other lines, results leading:

Immunoreactivity (from ID50 against unmodified control F(ab')2) [2]: 21%
Substance: mLL2 F(ab')2, DTPA conjugated at random lysines (4.3 chelators/F(ab')2) (antibody)

Immunoreactivity (from ID50 against unmodified control F(ab')2) [3]: 100%
Substance: hMN14 F(ab')2 with the grafted LL2 Vk glycosylation site, LC-DTPA conjugated at the Vk-CHO (2.1 chelators/F(ab')2) (antibody)
